Reference: patent publication US20040072750A1, “Compounds and methods for the modulation of CD154” (priority 2001, published 2004)
Entries after “also recorded” stand apart in the source; their conditions may differ.

Columns and labels:
platelets [1] = experiment: Release of sCD154 from stimulated platelets in platelet-rich plasma (ELISA); format: cell-based, human; details: for Inhibition of sCD154 Release at >90% Platelet Aggregation Inhibition, % / Potentiation of sCD154 Release, %: TRAP-stimulated platelets, average and SD; for Inhibition of sCD154 Release at >90% Platelet Aggregation Inhibition, %: release without GP IIb-IIIa inhibitor set at 100%; for Potentiation of sCD154 Release, %: maximal potentiation, release without inhibitor set at 100%
Description: Platelet-rich plasma (PRP) was prepared from human donors by obtaining blood through a 19-gauge butterfly into PPACK anticoagulant (8.6 ml of 2.1 mM PPACK, Calbiochem, La Jolla, Calif.: final concentration 0.3 mM). Blood was aliquoted into 15 ml polypropylene tubes and centrifuged at 900 rpm for 20 minutes (160×g). The platelet rich plasma (PRP) was carefully removed and pooled in a new tube. Platelet counts were taken and recorded. Aliquots of PRP at 37° C. were then added to 1.5 ml microcentrifuge tubes containing various amounts of eptifibatide. To initiate aggregation, 20 μM ADP 4 μg/mL collagen or 5 μM TRAP6 was added and samples were rocked on a Nutator for 30 minutes at 37° C. The tubes were put on ice and immediately centrifuged at 15,000×g for 10 minutes at 4° C.
The platelet-poor plasma (PPP) supernatant was removed to new tubes and the levels of sCD154 in these samples were measured by ELISA. There was a time-dependent increase in sCD154 release when platelets were aggregated with either ADP or TRAP6.
(§1) In other experiments, various concentrations of eptifibatide, abciximab or tirofiban were added to PRP before the addition of TRAP. In the eptifibatide experiments, the release of βTG from platelet a granules was determined from PPP samples by ELISA. Inhibition of aggregation by GP IIb-IIIa antagonists was determined in PPACK-anticoagulated PRP by light-transmission aggregometry (Chrono-Log) as described in Phillips et al. (1995) J Exp. Med 182:33-40. To assess the effect of aspirin use on the release of sCD154 from platelets, PRP was obtained from 7 donors, incubated with a single concentration of GP IIb-IIIa inhibitor, and stimulated with 20 μmol/L ADP, 5 μmol/L TRAP or 4 μg/mL collagen for 30 minutes while rocking at 37° C. Resultant PPP was measured for sCD154. The same donors then took 325 mg of aspirin for 7 days. PRP was again collected and subjected to the same conditions, and the release of sCD154 was determined. A control reading (no addition of inhibitor) was taken with the agonist 0.5 mmol/L arachidonic acid in citrated PRP to ensure that the aspirin had been taken.

platelets [2] = experiment: Platelet aggregation in PRP by light-transmission aggregometry; format: cell-based, human; details: before and after 7 days of aspirin
Description: as §1

washed platelets = experiment: Fibrinogen binding to washed platelets and microparticle generation (flow cytometry); format: cell-based, human; details: 2 μM protein, 60 minutes at 37° C.; FIG. 10
Description: Venous blood was collected from normal donors into ACD buffer (85 mM Sodium Citrate, […] and 71 mM Citric acid) containing 0.05 μg/ml prostaglandin 12(PGI2). Blood was later centrifuged at 160×g for 20 minutes to collect platelet rich plasma (PRP). PRP was centrifuged at 1100×g for 10 minutes to sediment platelets. Platelets were washed twice with CGS buffer (13 mM trisodium citrate, 120 mM sodium chloride and 30 mM dextrose pH 7.0). The first wash had 0.03 μg/ml PGI2. Washed platelets were finally suspended in Tyrodes-Hepes buffer (12 mM sodium bi-carbonate, 138 mM sodium chloride, 5.5 mM glucose, 2.9 mM potassium chloride, 10 mM Hepes, 1 mM calcium chloride and 1 mM magnesium chloride, pH 7.4).
Washed platelets (1×10^7/ml) were incubated for 60 minutes at 37° C. with 2 μM soluble CD154 (sCD154) or mutant sCD154 (D117E mutation in the KGD sequence) in the presence or absence of eptifibatide or anti-CD40 antibody. All incubations had 100 nM Alexa-Fibrinogen (Molecular probes, Eugene, Oreg.). Samples were diluted 10 fold with stain buffer (BD Pharmingen, Los Angeles, Calif.) after incubation and analyzed by flow cytometry (FACSort, BD, San Jose, Calif.).

platelets in whole blood = experiment: Perfusion chamber: thrombus formation of whole blood on protein-coated surface under shear; format: cell-based, human; details: with or without Fg
Description: The effect of CD154 on the aggregation of platelets under conditions of high shear stress were evaluated. Recombinant CD154 (rCD154 or rCD40L) was compared to fibrinogen (Fg) in its ability to form thrombi as well as in combination with Fg. Controls also included CD154 in which the KGD eptifibatide-recognition sequence was mutated to KGE (CD154(KGE) or CD40L(KGE)). Briefly, a silicone gasket with a flow path height of 127 μm was placed between a flat perfusion chamber (Glycotech, Rockville, Md.) and a protein-coated petri dish as described (Andre, P. et al., Nature Medicine, 8:247-252 (2002)). Petri dishes were coated with rCD40L, Fibrinogen (Fg), rCD40L+Fg, mutated CD40L (CD40L(KGE)), CD40L(KGE)+Fg. In one experiment, the glycoprotein IIb/IIIa antagonist eptifibatide (2 μM) was incubated with whole blood before perfusion over the rCD40L-coated surface. When Fg was coated with either rCD40L or CD40L(KGE), each molecule was deposited at 25 μg/cm^2. Coating of the proteins was performed using the spray method in which 25 μl of a 1 mg/ml protein solution is coated onto the plastic with a retouching air brush resulting in a concentration of 25 μg/cm^2 (Houdijk, WP et al., J. Clin. Invest., 75:531-540 (1985)). Human peripheral blood was collected on PPACK (40 μmol/L final concentration) and perfused for 4 minutes over the protein-coated surface. Shear rates of 1500-1600/s, 500-600/s and 100-200/s, were generated with flow rates of ˜0.6, 0.25 and 0.075 ml/min, respectively. Measurements of thrombotic deposits were performed using the Simple PCI software image analysis program (Technical Instrument, Burlingame, Calif.).

[3] = Plasma inflammatory markers after PCI (ELISA); format: in vivo, human
Description: (§2) Patients (n=45) undergoing PCI were enrolled. The study was approved by the IRB and all patients signed informed consent. Exclusion criteria included higher risk clinical scenarios mandating, according to institutional clinical practice, the use of GP IIb/IIIa antagonists (i.e., acute ST elevation MI or non q-wave MI with CPK elevation, pain at rest with EKG changes <24 hours, visible thrombus, pain refractory to heparin), pre-procedural GP IIb/IIIa inhibitor treatment, restenotic and graft lesions, and standard conditions excluding GP IIb/IIIa inhibitor use.
(§3) All patients received aspirin and intravenous heparin (50-70U/kg) monitored by activated clotting time (ACT) during the procedure. Patients were administered either no GP IIb/IIIa inhibitor, eptifibatide (180 μg/kg double bolus followed by 2 μg/kg/min for 16 h), or abciximab (0.25 mg/kg bolus intravenously followed by 0.125 μg/kg/min for 12 h) at the discretion of the primary operator. Platelet function was monitored using PPACK-anticoagulated blood and the Accumetrics RPFA device at baseline and 10 min post-final bolus. Interventionalists were blinded to RPFA results and not permitted to modify GP IIb-IIIa inhibitor dosing. Post-PCI, patients received clopidogrel (300 mg PO) followed by 75 mg daily.
Venous blood samples were collected prior to (t=0) and at 30 minutes, 2 hours, and 24 hours after the angioplasty wire was advanced across the lesion. Blood was collected into 10 mL tubes with either EDTA (for sCD 154 analysis) or PPACK (for all other analyses) anticoagulant, centrifuged at 4° C., and stored at −80° C. until analysis.
Inflammatory markers in plasma samples were quantified by commercially available ELISA for sCD154 (Alexis BioChemical) with modification (12), RANTES, IL6, sICAM-1 (BioSource), and CRP (Alpha Diagnostic International).
Primary endpoint data are presented as mean±SE. Data were log transformed to achieve a normal distribution verified by Kolmogorov-Smirnov test for normality. Statistical comparisons were performed using two-way ANOVA to determine a difference in mean values over time between the 3 groups. Pair-wise comparisons were performed when the ANOVA false-positive rate was ≦5%. A Bonferroni corrective for 3 pair-wise comparisons was applied, in which the p-value of […] was used to signify a false-positive rate of 5%. For ANOVA with a false-positive rate of ≧5%, the pair-wise comparisons were reported to be statistically nonsignificant (NS). Baseline and procedural characteristics data were analyzed with standard one way ANOVA for continuous data in more than 3 groups and a student's t-test for comparison of 2 groups. A Mann-Whitney Rank Sum test was used for nominal data. Statistical significance was assumed if the false positive rate was ≦5%.

platelets [4] = experiment: Platelet function (Accumetrics RPFA) in patients undergoing PCI; format: in vivo, human; details: 10 minutes post final bolus
Description: as §2, §3

CCCCS(=O)(=O)N[C@@H](Cc1ccc(OCCCCC2CCNCC2)cc1)C(=O)O [tirofiban]
Inhibition of sCD154 Release at >90% Platelet Aggregation Inhibition, % (platelets [1]): 80 ± 5.3% | Potentiation of sCD154 Release, % (platelets [1]): 19 ± 7.7%

CC(=O)Oc1ccccc1C(=O)O [aspirin]
platelet aggregation in response to optimal doses of platelet agonists (platelets [2]): no effect | release of sCD154 from platelets stimulated with ADP or TRAP (platelets [1]; after aspirin use): unaffected; also recorded: does not block | release of CD154 from platelets activated by collagen (platelets [1]; aspirin, in words): blocks | decrease in the release of sCD154 from collagen-induced platelet aggregates (platelets [1]; donors took 325 mg aspirin for 7 days, collagen 4 μg/mL): 50%

B1: CD40L(KGE): CD154 in which the KGD eptifibatide-recognition sequence was mutated to KGE (D117E) (protein, UniProt P29965 113-261, looked up, variant D117E)
CD40 ligand, soluble form: MQKGEQNPQIAAHVISEASSKTTSVLQWAEKGYYTMSNNLVTLENGKQLTVKRQGLYYIYAQVTFCSNREASSQAPFIASLCLKSPGRFERILLRAANTHSSAKPCGQQSIHLGGVFELQPGASVFVNVTDPSQVSHGTGFTSFGLLKL
fibrinogen binding to platelets and generation of microparticles (washed platelets): did not stimulate | aggregate formation on coated surface (platelets in whole blood): does not induce

B2: abciximab (antibody, chains of the INN, looked up, V domains shown)
VH: EVQLQQSGTVLARPGASVKMSCEASGYTFTNYWMHWVKQRPGQGLEWIGAIYPGNSDTSYIQKFKGKAKLTAVTSTTSVYMELSSLTNEDSAVYYCTLYDGYYVFAYWGQGTLVTVSA
VL: EIVLTQSPVTLSVTPGDSVSLSCRASRDISNNLHWFQQTSHESPRLLIKYASQSMSGIPSRFSGSGSGTDFTLSINSVETEDFGMYFCQQTNSWPYTFGGGTKLEIK
modifications: Fab
notes: parenteral GP IIb-IIIa antagonist
CRP levels after PCI ([3]; 2-24 hours after PCI, not statistically significant): lowest levels | plasma RANTES levels after PCI ([3]; versus baseline): not observed | Platelet inhibition (% inhibition) (platelets [4]): 93±4% | Inhibition of sCD154 Release at >90% Platelet Aggregation Inhibition, % (platelets [1]): 57 ± 8.2% | Potentiation of sCD154 Release, % (platelets [1]): 19 ± 7.5%
